Ends that are not written are not given here.
Target: T1, RNF31 PUB domain (Homo sapiens, UniProt Q96EP0)
T1 construct: MBP-TEV (N, cleaved yes); made in house; host or cells: E. coli BL21 (DE3) pLysS
T1 sequence (Q96EP0 1-179): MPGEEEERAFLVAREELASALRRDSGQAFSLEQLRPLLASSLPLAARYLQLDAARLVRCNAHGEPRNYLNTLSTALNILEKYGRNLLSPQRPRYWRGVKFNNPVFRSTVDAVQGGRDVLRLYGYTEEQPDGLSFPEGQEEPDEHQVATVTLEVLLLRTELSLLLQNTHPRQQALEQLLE
Assay: Phage Library Screening with NGS, RNF31 PUB domain
Type: binding
Conditions: for Phage library screen NGS readout, Target Concentration 10 / Phage library screen NGS readout, Target Concentration 30 / Phage library screen NGS readout, Target Concentration 100 / Phage library screen NGS readout, Target Concentration 300 / Phage library screen NGS readout, Target Concentration 1000: RNF31 PUB domain clusters C41-C45; for Phage library screen NGS readout, BLANK: clusters C41-C45

[1] = target concentration 1000, first column
[2] = target concentration 1000, second column

Sequence | Phage library screen NGS readout, Target Concentration 10 | Phage library screen NGS readout, Target Concentration 30 | Phage library screen NGS readout, Target Concentration 100 | Phage library screen NGS readout, Target Concentration 300 | Phage library screen NGS readout, Target Concentration 1000 [1] | Phage library screen NGS readout, Target Concentration 1000 [2] | Phage library screen NGS readout, BLANK (column 1 of 5) | Phage library screen NGS readout, BLANK (column 2 of 5) | Phage library screen NGS readout, BLANK (column 3 of 5) | Phage library screen NGS readout, BLANK (column 4 of 5) | Phage library screen NGS readout, BLANK (column 5 of 5)
DPAQDQCISAAVLCTYT | 0 | 0 | 0 | 22 | 44 | 37 | 0 | 0 | 1 | 0 | 0
DPAQMECIDAAIMCSYT | 0 | 0 | 0 | 3 | 5 | 5 | 0 | 0 | 0 | 0 | 0
DPAQDWCMYAAYECDAH | 0 | 0 | 0 | 2 | 7 | 9 | 0 | 0 | 2 | 1 | 1

Continued, values first:

Phage library screen NGS readout, Target Concentration 10 | Phage library screen NGS readout, Target Concentration 30 | Phage library screen NGS readout, Target Concentration 100 | Phage library screen NGS readout, Target Concentration 300 | Phage library screen NGS readout, Target Concentration 1000 [1] | Phage library screen NGS readout, Target Concentration 1000 [2] | Phage library screen NGS readout, BLANK (column 1 of 5) | Phage library screen NGS readout, BLANK (column 2 of 5) | Phage library screen NGS readout, BLANK (column 3 of 5) | Phage library screen NGS readout, BLANK (column 4 of 5) | Phage library screen NGS readout, BLANK (column 5 of 5) | Sequence
1 | 1 | 3 | 3 | 7 | 4 | 1 | 0 | 0 | 3 | 2 | DPAQYQCWNAAMSCSYS
0 | 1 | 0 | 4 | 8 | 12 | 0 | 2 | 1 | 0 | 0 | DPALWDCLYAADACITS (not fully specified; cysteine pairing not given here)
0 | 0 | 1 | 5 | 48 | 38 | 1 | 0 | 0 | 1 | 0 | DPAYDYCLYAAYDCTQT
0 | 0 | 0 | 6 | 27 | 15 | 0 | 0 | 0 | 0 | 4 | DPAIDACYDAAVMCTYV
